B1: BG4–14 IgG1 (antibody, V domains shown)
VH: not shown
VL: QSALTQPASVSGSPGQSITISCTGTSSDVGSYNLVSWYQHHPGKAPKLMIYEVSKRPSGVSNRFSGSKSGNTASLTISGLQAEDETDYYCCSYAGSSTLVFGGGTKLTVL
B2: BG4–25 Fab (Fab, V domains shown)
VH: EVQLVESGGGLIQPGGSLRLSCAASGITVVRNYMTWVRQAPGKGLEWVSVIYSGGTTYYADSVKGRFTISRDNSKNTMYLQMNSLRAEDTAIYYCARDLEVVGAMDVWGQGTTVTVSS
VL: EIVLTQSPGTLSLSPGERATLSCRASQSVPSSYLAWYQQKPGQAPRLLIYGASSRATGIPDRFSGSGSGTDFTLTISRLEPEDFAVYYCQQYGSPMYTFGQGTKLEIK
B3: BG10–19 IgG1 (antibody, V domains shown)
VH: EVQLVQSGAEVKKPGESLKISCKGSGYSFTSYWIGWVRQMPGKGLEWMGVIYPGDSDTRYSPSFQGQVTISADKSISTAYLQWSSLKASDTAMYYCARTQWGYNYGSHFFYMDVWGKGTTVTVSS
VL: QSVLTQPPSASGTPGQRVTISCSGSSSNIGSDHVYWYQQLPGTAPKLFIYRNNQRPSGVPDRFSGSKSGTSASLAISGLRSEDEADYYCAAWDASLSGYVFGTGTKVTVL
B4: BG10–19 Fab (Fab, V domains shown)
VH: EVQLVQSGAEVKKPGESLKISCKGSGYSFTSYWIGWVRQMPGKGLEWMGVIYPGDSDTRYSPSFQGQVTISADKSISTAYLQWSSLKASDTAMYYCARTQWGYNYGSHFFYMDVWGKGTTVTVSS
VL: QSVLTQPPSASGTPGQRVTISCSGSSSNIGSDHVYWYQQLPGTAPKLFIYRNNQRPSGVPDRFSGSKSGTSASLAISGLRSEDEADYYCAAWDASLSGYVFGTGTKVTVL

Legend:
[1] = molecular target: T1, SARS-CoV-2 receptor-binding domain (RBD) (SARS-CoV-2, UniProt P0DTC2); assay: ELISA
[2] = molecular target: T1, SARS-CoV-2 receptor-binding domain (RBD); assay: crystal structure

Binder | binding result [1] | binding result [2]
B1 | binds | 
B2 |  | binds
B3 | binds | 
B4 | binds | 
